The values below come from US5766897A, “Cysteine-pegylated proteins” (Incyte Pharmaceuticals, Inc., priority 1995, dated 1998).

The target in the data set is Thrombin (Homo sapiens, UniProt P00734). Kind of data set: thrombin inhibition activity assay (D.4), specific activity. Particulars: for ACTIVITY, AFTER PEG MODIFICATION: after cysteine-PEGylation with Maleimido-PEG; for REL TO WT, BEFORE PEG MODIFICATION: activity relative to wild type PN-1; for REL TO ACTIVITY BEFORE PEG, AFTER PEG MODIFICATION: cysteine-PEGylated protein relative to same protein before PEGylation; for REL TO WT, AFTER PEG MODIFICATION: cysteine-PEGylated protein relative to wild type PN-1. The data set is classed as biochemical. How it is done: Refolded or soluble protein was tested for capacity to inhibit thrombin in a standard assay. Briefly, serial 2-fold dilutions of PN-1 variant were added to microtiter plate wells (50 μl/well), followed by 50 μl of a 30 μg/ml heparin solution, followed by 1 NIH unit of thrombin in 50 μl. These were allowed to incubate at 25° C. for 15 minutes. Residual thrombin activity was measured by the addition of 50 μl S-2238 (Kabi Pharmaceuticals) at 0.625 mg/ml. PN-1 variants were tested for their ability to inhibit urokinase using the substrate S-2444, plasmin using the substrate S-2390, tPA using the substrate S2288, Factor Xa using the substrate S-2222 or S-2765, kallikrein using the substrate S-2302, human neutrophil elastase using s-AAPV-pna (Sigma), cathepsin G using s-AAPF-pna (Sigma) in a similar manner, with or without the addition of heparin.
Each of the PN-1 site-directed mutant proteins, as well as wild type PN-1, were modified by cysteine-PEGylation using the protocol described in F.2. The activity of wild type PN-1, each of the PN-1 site-directed mutants, and the cysteine-PEGylated wild type and mutant proteins was determined using the assay described in D.4.

B1: PN-1 produced in insect cells: glycosylated PN-1 produced in insect cells using a baculovirus expression system (protein, UniProt P07093 20-398, looked up)
Glia-derived nexin: SHFNPLSLEELGSNTGIQVFNQIVKSRPHDNIVISPHGIASVLGMLQLGADGRTKKQLAMVMRYGVNGVGKILKKINKAIVSKKNKDIVTVANAVFVKNASEIEVPFVTRNKDVFQCEVRNVNFEDPASACDSINAWVKNETRDMIDNLLSPDLIDGVLTRLVLVNAVYFKGLWKSRFQPENTKKRTFVAADGKSYQVPMLAQLSVFRCGSTSAPNDLWYNFIELPYHGESISMLIALPTESSTPLSAIIPHISTKTIDSWMSIMVPKRVQVILPKFTAVAQTDLKEPLKVLGITDMFDSSKANFAKITTGSENLHVSHILQKAKIEVSEDGTKASAATTAILIARSSPPWFIVDRPFLFFIRHNPTGAVLFMGQINKP
modifications: insect cell glycosylated
notes: glycosylated PN-1 produced in insect cells using a baculovirus expression system
With B1, the “specific activity vs thrombin and association kinetics, including rate enhancement effect of heparin” value (compared with authentic PN-1) is “indistinguishable from authentic PN-1”.

B2: G52C (conjugate, UniProt P07093 20-398, looked up, variant G52C)
Glia-derived nexin: SHFNPLSLEELGSNTGIQVFNQIVKSRPHDNIVISPHGIASVLGMLQLGADCRTKKQLAMVMRYGVNGVGKILKKINKAIVSKKNKDIVTVANAVFVKNASEIEVPFVTRNKDVFQCEVRNVNFEDPASACDSINAWVKNETRDMIDNLLSPDLIDGVLTRLVLVNAVYFKGLWKSRFQPENTKKRTFVAADGKSYQVPMLAQLSVFRCGSTSAPNDLWYNFIELPYHGESISMLIALPTESSTPLSAIIPHISTKTIDSWMSIMVPKRVQVILPKFTAVAQTDLKEPLKVLGITDMFDSSKANFAKITTGSENLHVSHILQKAKIEVSEDGTKASAATTAILIARSSPPWFIVDRPFLFFIRHNPTGAVLFMGQINKP
modifications: PEG
Take B2: the “ACTIVITY, AFTER PEG MODIFICATION” value was 0.05 NIH units of thrombin inhibited per μg PN1 (variant); the “SPECIFIC ACTIVITY, BEFORE PEG MODIFICATION” value is given as 0.024 NIH units of thrombin inhibited per μg PN1 (variant); the “REL TO WT, BEFORE PEG MODIFICATION” value came out at 0.048; the “REL TO ACTIVITY BEFORE PEG, AFTER PEG MODIFICATION” value (“REL TO ACTIVITY BEFORE PEG” for short) came to 2.1. Also, the “REL TO WT, AFTER PEG MODIFICATION” value was 0.1.

B3: S1C (conjugate, UniProt P07093 20-398, looked up, variant S1C)
Glia-derived nexin: CHFNPLSLEELGSNTGIQVFNQIVKSRPHDNIVISPHGIASVLGMLQLGADGRTKKQLAMVMRYGVNGVGKILKKINKAIVSKKNKDIVTVANAVFVKNASEIEVPFVTRNKDVFQCEVRNVNFEDPASACDSINAWVKNETRDMIDNLLSPDLIDGVLTRLVLVNAVYFKGLWKSRFQPENTKKRTFVAADGKSYQVPMLAQLSVFRCGSTSAPNDLWYNFIELPYHGESISMLIALPTESSTPLSAIIPHISTKTIDSWMSIMVPKRVQVILPKFTAVAQTDLKEPLKVLGITDMFDSSKANFAKITTGSENLHVSHILQKAKIEVSEDGTKASAATTAILIARSSPPWFIVDRPFLFFIRHNPTGAVLFMGQINKP
modifications: PEG
As for B3, the “ACTIVITY, AFTER PEG MODIFICATION” value was 0.25 NIH units of thrombin inhibited per μg PN1 (variant); the “SPECIFIC ACTIVITY, BEFORE PEG MODIFICATION” value is listed as 0.10 NIH units of thrombin inhibited per μg PN1 (variant); the “REL TO WT, BEFORE PEG MODIFICATION” value amounted to 0.20; the “REL TO ACTIVITY BEFORE PEG” value was determined as 2.5. Moreover, the “REL TO WT, AFTER PEG MODIFICATION” value was determined as 0.50.

B4: E125C (conjugate, UniProt P07093 20-398, looked up, variant E125C)
Glia-derived nexin: SHFNPLSLEELGSNTGIQVFNQIVKSRPHDNIVISPHGIASVLGMLQLGADGRTKKQLAMVMRYGVNGVGKILKKINKAIVSKKNKDIVTVANAVFVKNASEIEVPFVTRNKDVFQCEVRNVNFCDPASACDSINAWVKNETRDMIDNLLSPDLIDGVLTRLVLVNAVYFKGLWKSRFQPENTKKRTFVAADGKSYQVPMLAQLSVFRCGSTSAPNDLWYNFIELPYHGESISMLIALPTESSTPLSAIIPHISTKTIDSWMSIMVPKRVQVILPKFTAVAQTDLKEPLKVLGITDMFDSSKANFAKITTGSENLHVSHILQKAKIEVSEDGTKASAATTAILIARSSPPWFIVDRPFLFFIRHNPTGAVLFMGQINKP
modifications: PEG
For the molecule B4, the “ACTIVITY, AFTER PEG MODIFICATION” value is 0.15 NIH units of thrombin inhibited per μg PN1 (variant); the “SPECIFIC ACTIVITY, BEFORE PEG MODIFICATION” value is 0.095 NIH units of thrombin inhibited per μg PN1 (variant); the “REL TO WT, BEFORE PEG MODIFICATION” value was 0.19; the “REL TO ACTIVITY BEFORE PEG” value is listed as 1.57. Moreover, the “REL TO WT, AFTER PEG MODIFICATION” value came out at 0.3.

B5: N85C (conjugate, UniProt P07093 20-398, looked up, variant N85C)
Glia-derived nexin: SHFNPLSLEELGSNTGIQVFNQIVKSRPHDNIVISPHGIASVLGMLQLGADGRTKKQLAMVMRYGVNGVGKILKKINKAIVSKKCKDIVTVANAVFVKNASEIEVPFVTRNKDVFQCEVRNVNFEDPASACDSINAWVKNETRDMIDNLLSPDLIDGVLTRLVLVNAVYFKGLWKSRFQPENTKKRTFVAADGKSYQVPMLAQLSVFRCGSTSAPNDLWYNFIELPYHGESISMLIALPTESSTPLSAIIPHISTKTIDSWMSIMVPKRVQVILPKFTAVAQTDLKEPLKVLGITDMFDSSKANFAKITTGSENLHVSHILQKAKIEVSEDGTKASAATTAILIARSSPPWFIVDRPFLFFIRHNPTGAVLFMGQINKP
modifications: PEG
As to B5, the “ACTIVITY, AFTER PEG MODIFICATION” value is 0.040 NIH units of thrombin inhibited per μg PN1 (variant); the “SPECIFIC ACTIVITY, BEFORE PEG MODIFICATION” value is 0.033 NIH units of thrombin inhibited per μg PN1 (variant); the “REL TO WT, BEFORE PEG MODIFICATION” value was 0.066; the “REL TO ACTIVITY BEFORE PEG” value was determined as 1.2. For the same molecule, the “REL TO WT, AFTER PEG MODIFICATION” value turned out to be 0.080.

B6: R63C (conjugate, UniProt P07093 20-398, looked up, variant R63C)
Glia-derived nexin: SHFNPLSLEELGSNTGIQVFNQIVKSRPHDNIVISPHGIASVLGMLQLGADGRTKKQLAMVMCYGVNGVGKILKKINKAIVSKKNKDIVTVANAVFVKNASEIEVPFVTRNKDVFQCEVRNVNFEDPASACDSINAWVKNETRDMIDNLLSPDLIDGVLTRLVLVNAVYFKGLWKSRFQPENTKKRTFVAADGKSYQVPMLAQLSVFRCGSTSAPNDLWYNFIELPYHGESISMLIALPTESSTPLSAIIPHISTKTIDSWMSIMVPKRVQVILPKFTAVAQTDLKEPLKVLGITDMFDSSKANFAKITTGSENLHVSHILQKAKIEVSEDGTKASAATTAILIARSSPPWFIVDRPFLFFIRHNPTGAVLFMGQINKP
modifications: PEG
Regarding B6, the “ACTIVITY, AFTER PEG MODIFICATION” value is reported as 0.125 NIH units of thrombin inhibited per μg PN1 (variant); the “SPECIFIC ACTIVITY, BEFORE PEG MODIFICATION” value is given as 0.050 NIH units of thrombin inhibited per μg PN1 (variant); the “REL TO WT, BEFORE PEG MODIFICATION” value worked out at 0.10; the “REL TO ACTIVITY BEFORE PEG” value was determined as 2.5. The “REL TO WT, AFTER PEG MODIFICATION” value is 0.25.

B7: N99C (conjugate, UniProt P07093 20-398, looked up, variant N99C)
Glia-derived nexin: SHFNPLSLEELGSNTGIQVFNQIVKSRPHDNIVISPHGIASVLGMLQLGADGRTKKQLAMVMRYGVNGVGKILKKINKAIVSKKNKDIVTVANAVFVKCASEIEVPFVTRNKDVFQCEVRNVNFEDPASACDSINAWVKNETRDMIDNLLSPDLIDGVLTRLVLVNAVYFKGLWKSRFQPENTKKRTFVAADGKSYQVPMLAQLSVFRCGSTSAPNDLWYNFIELPYHGESISMLIALPTESSTPLSAIIPHISTKTIDSWMSIMVPKRVQVILPKFTAVAQTDLKEPLKVLGITDMFDSSKANFAKITTGSENLHVSHILQKAKIEVSEDGTKASAATTAILIARSSPPWFIVDRPFLFFIRHNPTGAVLFMGQINKP
modifications: PEG
For the molecule B7, the “ACTIVITY, AFTER PEG MODIFICATION” value is on record as 0.50 NIH units of thrombin inhibited per μg PN1 (variant); the “SPECIFIC ACTIVITY, BEFORE PEG MODIFICATION” value was 0.20 NIH units of thrombin inhibited per μg PN1 (variant); the “REL TO WT, BEFORE PEG MODIFICATION” value is 0.40; the “REL TO ACTIVITY BEFORE PEG” value is 2.5. In addition, the “REL TO WT, AFTER PEG MODIFICATION” value is recorded as 1.0.
